Assays:
CD64 (FcγRI) [1] = target: T1, CD64 (FcγRI) (UniProt P12314 16-288, limits assumed); assay: solution affinity SPR: antibody titrated into CD64, inhibition of CD64 binding to immobilized IgG1 MAb; average of two titrations
T1 construct: Soluble Fc receptor used in solution; source and construct not described

CD64 (FcγRI) [2] = target: T1, CD64 (FcγRI); assay: solution affinity SPR: inhibition of CD64 binding to immobilized IgG1 MAb
CD16 (FcγRIIIa V158) = target: T2, CD16 (FcγRIIIa V158) (UniProt P08637 17-208, limits assumed); assay: solution affinity SPR: antibody titrated into CD16, inhibition of CD16 binding to immobilized IgG1 MAb; average of two titrations
T2 construct: V158 allotype as printed; source and construct not described; also called Fc gamma III receptor
T2 sequence (P08637 17-208 F176V limits assumed): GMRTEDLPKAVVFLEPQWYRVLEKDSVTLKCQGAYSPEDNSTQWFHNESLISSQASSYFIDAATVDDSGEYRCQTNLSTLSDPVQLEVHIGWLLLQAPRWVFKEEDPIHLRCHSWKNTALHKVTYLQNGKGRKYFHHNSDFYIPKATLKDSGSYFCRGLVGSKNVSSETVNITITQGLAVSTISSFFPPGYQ

T1 sequence (P12314 16-288 limits assumed): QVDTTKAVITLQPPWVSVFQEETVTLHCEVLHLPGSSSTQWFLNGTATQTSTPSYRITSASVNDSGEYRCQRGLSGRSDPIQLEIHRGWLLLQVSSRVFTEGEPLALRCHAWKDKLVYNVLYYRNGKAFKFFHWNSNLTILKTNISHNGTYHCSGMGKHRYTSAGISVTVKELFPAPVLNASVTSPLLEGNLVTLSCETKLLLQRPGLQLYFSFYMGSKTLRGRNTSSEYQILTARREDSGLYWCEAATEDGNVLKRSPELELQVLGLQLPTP

| IC50 (CD64 (FcγRI) [1]) [µM] | IC50 (CD64 (FcγRI) [2]) [µM] | IC50 (CD16 (FcγRIIIa V158)) [µM] | Binder |
| --- | --- | --- | --- |
| 3020 |  |  | pEAG2300 (hu5c8, IgG4 chimeric hinge + IgG1 CH3, glycosylated) (antibody) chain 1: QVQLVQSGAEVVKPGASVKLSCKASGYIFTSYYMYWVKQAPGQGLEWIGEINPSNGDTNFNEKFKSKATLTVDKSASTAYMELSSLRSEDTAVYYCTRSDGRNDMDSWGQGTLVTVSSASTKGPSVFPLAPCSRSTSESTAALGCLVKDYFPEPVTVSWNSGALTSGVHTFPAVLQSSGLYSLSSVVTVPSSSLGTKTYTCNVDHKPSNTKVDKRVESKYGPPCPPCPAPPVAGPSVFLFPPKPKDTLMISRTPEVTCVVVDVSQEDPEVQFNWYVDGVEVHNAKTKPREEQFNSTYRVVSVLTVLHQDWLNGKEYKCKVSNKGLPSSIEKTISKAKGQPREPQVYTLPPSRDELTKNQVSLTCLVKGFYPSDIAVEWESNGQPENNYKTTPPVLDSDGSFFLYSKLTVDKSRWQQGNVFSCSVMHEALHNHYTQKSLSLSPG chain 2: DIVLTQSPATLSVSPGERATISCRASQRVSSSTYSYMHWYQQKPGQPPKLLIKYASNLESGVPARFSGSGSGTDFTLTISSVEPEDFATYYCQHSWEIPPTFGGGTKLEIKRTVAAPSVFIFPPSDEQLKSGTASVVCLLNNFYPREAKVQWKVDNALQSGNSQESVTEQDSKDSTYSLSSTLTLSKADYEKHKVYACEVTHQGLSSPVTKSFNRGEC |
| 11.2 | ~8 | 564 | EC300 (hu5c8 IgG4.P S228P, T307P, glycosylated) (antibody) chain 1: not shown chain 2: DIVLTQSPATLSVSPGERATISCRASQRVSSSTYSYMHWYQQKPGQPPKLLIKYASNLESGVPARFSGSGSGTDFTLTISSVEPEDFATYYCQHSWEIPPTFGGGTKLEIKRTVAAPSVFIFPPSDEQLKSGTASVVCLLNNFYPREAKVQWKVDNALQSGNSQESVTEQDSKDSTYSLSSTLTLSKADYEKHKVYACEVTHQGLSSPVTKSFNRGEC |
| 739 |  |  | IgG4.P T299A (hu5c8 aglycosylated IgG4.P S228P, T299A) (antibody) chain 1: not shown chain 2: DIVLTQSPATLSVSPGERATISCRASQRVSSSTYSYMHWYQQKPGQPPKLLIKYASNLESGVPARFSGSGSGTDFTLTISSVEPEDFATYYCQHSWEIPPTFGGGTKLEIKRTVAAPSVFIFPPSDEQLKSGTASVVCLLNNFYPREAKVQWKVDNALQSGNSQESVTEQDSKDSTYSLSSTLTLSKADYEKHKVYACEVTHQGLSSPVTKSFNRGEC |

Source: US20120100140A1 (Biogen, published 2012)
